Test results as given in IntAct's records for PubMed 19822759.

Target: sc23a_mouse Sec23a (UniProt Q01405)
Sequence (Q01405 whole entry): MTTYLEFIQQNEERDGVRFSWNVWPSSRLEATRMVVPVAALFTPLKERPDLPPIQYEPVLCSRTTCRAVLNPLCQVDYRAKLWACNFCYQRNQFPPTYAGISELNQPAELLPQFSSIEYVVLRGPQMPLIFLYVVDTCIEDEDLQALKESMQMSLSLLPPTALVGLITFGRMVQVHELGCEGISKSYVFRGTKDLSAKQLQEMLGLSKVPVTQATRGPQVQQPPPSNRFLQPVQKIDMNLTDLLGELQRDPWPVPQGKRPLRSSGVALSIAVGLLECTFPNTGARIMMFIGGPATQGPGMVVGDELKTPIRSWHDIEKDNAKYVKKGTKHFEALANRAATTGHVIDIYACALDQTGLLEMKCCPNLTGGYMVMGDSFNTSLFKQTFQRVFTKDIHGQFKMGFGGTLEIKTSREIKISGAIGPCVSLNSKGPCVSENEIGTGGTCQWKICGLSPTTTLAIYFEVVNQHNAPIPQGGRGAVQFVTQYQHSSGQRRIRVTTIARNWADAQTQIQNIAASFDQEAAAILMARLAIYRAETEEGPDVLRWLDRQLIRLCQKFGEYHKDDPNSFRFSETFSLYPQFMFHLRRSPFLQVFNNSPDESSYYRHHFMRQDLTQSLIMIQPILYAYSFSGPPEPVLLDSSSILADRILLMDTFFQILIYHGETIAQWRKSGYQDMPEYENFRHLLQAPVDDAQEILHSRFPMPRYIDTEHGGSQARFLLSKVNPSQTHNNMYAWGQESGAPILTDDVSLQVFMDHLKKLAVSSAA

- effect of a mutation on the interaction: disrupting interaction
Substance: Small COPII coat GTPase SAR1A (Homo sapiens), Q9NR31 T39N
